In patent US20180244796A1 (CARSGEN THERAPEUTICS, published 2018):

B1: chimeric antigen receptor P3F2-BBZ on CTL cells (receptor)
chain: QMQLVQSGAEVKKPGASVKVSCKASGYTFTSYYMHWVRQAPGQGLEWMGIINPSGGSTSYAQKFQGRVTMTRDTSTSTVYMELSSLRSEDTAVYYCASSRSGTTVVNHDAFDIWGKGTTVTVSSGGGGSGGGGSGGGGSDIQLTQSPSSLSASVGDRVTITCRASQVISRALAWYQQTPGKPPKLLIYDASNLQSGVPSRFSGSGSGTDFTLTISRLQPEDFATYYCQQFNSYPLTFGGGTKLEIKRTTTPAPRPPTPAPTIASQPLSLRPEACRPAAGGAVHTRGLDFACDIYIWAPLAGTCGVLLLSLVITLYCKRGRKKLLYIFKQPFMRPVQTTQEEDGCSCRFPEEEEGGCELRVKFSRSADAPAYKQGQNQLYNELNLGRREEYDVLDKRRGRDPEMGGKPRRKNPQEGLYNELQKDKMAEAYSEIGMKGERRRGKGHDGLYQGLSTATKDTYDALHMQALPPR
notes: Expressed on human CTL cells by lentivirus; also called scFv(MSLN)-CD8-CD137-CD3 zeta
B2: chimeric antigen receptor P1A6E-BBZ on CTL cells (receptor)
chain: QVQLEQSGLGLVKPSQTLSLTCAISGDTVSSDSAAWNWIRQSPSRGLEWLGRTYYRSKWFNDYAVSVKGRITINSDTSKNQFSLQLNSVTPEDTAVYYCARSNSYYYYAMDVWGQGTLVTVSSGGGGSGGGGSGGGGSQAVLTQPSSLSASPGASASLTCTLRSGINVGIYRIYWYQQRPGSPPQILLTYKSDSDKYQGSGVPSRFSGSKDASANAGILLISGLQSEDEADYYCMIWHSGGWVFGGGTKVTVLGTTTPAPRPPTPAPTIASQPLSLRPEACRPAAGGAVHTRGLDFACDIYIWAPLAGTCGVLLLSLVITLYCKRGRKKLLYIFKQPFMRPVQTTQEEDGCSCRFPEEEEGGCELRVKFSRSADAPAYKQGQNQLYNELNLGRREEYDVLDKRRGRDPEMGGKPRRKNPQEGLYNELQKDKMAEAYSEIGMKGERRRGKGHDGLYQGLSTATKDTYDALHMQALPPR
notes: as for B1
B3: single chain antibody P1A6E (phage-displayed, single phage ELISA) (scFv)
scFv: QVQLEQSGLGLVKPSQTLSLTCAISGDTVSSDSAAWNWIRQSPSRGLEWLGRTYYRSKWFNDYAVSVKGRITINSDTSKNQFSLQLNSVTPEDTAVYYCARSNSYYYYAMDVWGQGTLVTVSSGGGGSGGGGSGGGGSQAVLTQPSSLSASPGASASLTCTLRSGINVGIYRIYWYQQRPGSPPQILLTYKSDSDKYQGSGVPSRFSGSKDASANAGILLISGLQSEDEADYYCMIWHSGGWVFGGGTKVTVLG
notes: the fusion to the phage coat protein is not described
B4: single chain antibody P3F2 (phage-displayed, single phage ELISA) (scFv)
scFv: QMQLVQSGAEVKKPGASVKVSCKASGYTFTSYYMHWVRQAPGQGLEWMGIINPSGGSTSYAQKFQGRVTMTRDTSTSTVYMELSSLRSEDTAVYYCASSRSGTTVVNHDAFDIWGKGTTVTVSSGGGGSGGGGSGGGGSDIQLTQSPSSLSASVGDRVTITCRASQVISRALAWYQQTPGKPPKLLIYDASNLQSGVPSRFSGSGSGTDFTLTISRLQPEDFATYYCQQFNSYPLTFGGGTKLEIKR
notes: as for B3
B5: P3F2 monoclonal antibody (antibody, V domains shown)
VH: QMQLVQSGAEVKKPGASVKVSCKASGYTFTSYYMHWVRQAPGQGLEWMGIINPSGGSTSYAQKFQGRVTMTRDTSTSTVYMELSSLRSEDTAVYYCASSRSGTTVVNHDAFDIWGKGTTVTVSS
VL: DIQLTQSPSSLSASVGDRVTITCRASQVISRALAWYQQTPGKPPKLLIYDASNLQSGVPSRFSGSGSGTDFTLTISRLQPEDFATYYCQQFNSYPLTFGGGTKLEIKR
notes: Full antibody: VH in plasmid pIH with human IgG1 CH gene, VL in plasmid pIK with human IgG CL gene; also called monoclonal antibody P3F2
B6: purified human mesothelin protein (recombinant, 6xHis tag) (other)
chain: EVEKTACPSGKKAREIDESLIFYKKWELEACVDAALLATQMDRVNAIPFTYEQLDVLKHKLDELYPQGYPESVIQHLGYLFLKMSPEDIRKWNVTSLETLKALLEVNKGHEMSPQVATLIDRFVKGRGQLDKDTLDTLTAFYPGYLCSLSPEELSSVPPSSIWAVRPQDLDTCDPRQLDVLYPKARLAFQNMNGSEYFVKIQSFLGGAPTEDLKALSQQNVSMDLATFMKLRTDAVLPLTVAEVQKLLGPHVEGLKAEERHRPVRDWILRQRQDDLDTLGLGLQGHHHHHH
notes: also called hu-mesothelin; human mesothelin recombinant protein
B7: chimeric antigen receptor P1A6E-δZ on CTL cells (receptor)
chain: QVQLEQSGLGLVKPSQTLSLTCAISGDTVSSDSAAWNWIRQSPSRGLEWLGRTYYRSKWFNDYAVSVKGRITINSDTSKNQFSLQLNSVTPEDTAVYYCARSNSYYYYAMDVWGQGTLVTVSSGGGGSGGGGSGGGGSQAVLTQPSSLSASPGASASLTCTLRSGINVGIYRIYWYQQRPGSPPQILLTYKSDSDKYQGSGVPSRFSGSKDASANAGILLISGLQSEDEADYYCMIWHSGGWVFGGGTKVTVLGTTTPAPRPPTPAPTIASQPLSLRPEACRPAAGGAVHTRGLDFACDIYIWAPLAGTCGVLLLSLVITRVKFSRSADAPA
notes: Expressed on human CTL cells by lentivirus; also called P1A6E-δZ (negative control); P1A6E-δZ (mock)
B8: chimeric antigen receptor P3F2-δZ on CTL cells (receptor)
chain: QMQLVQSGAEVKKPGASVKVSCKASGYTFTSYYMHWVRQAPGQGLEWMGIINPSGGSTSYAQKFQGRVTMTRDTSTSTVYMELSSLRSEDTAVYYCASSRSGTTVVNHDAFDIWGKGTTVTVSSGGGGSGGGGSGGGGSDIQLTQSPSSLSASVGDRVTITCRASQVISRALAWYQQTPGKPPKLLIYDASNLQSGVPSRFSGSGSGTDFTLTISRLQPEDFATYYCQQFNSYPLTFGGGTKLEIKRTTTPAPRPPTPAPTIASQPLSLRPEACRPAAGGAVHTRGLDFACDIYIWAPLAGTCGVLLLSLVITRVKFSRSADAPA
notes: Expressed on human CTL cells by lentivirus; also called P3F2-δZ (negative control); P3F2-δZ (mock)
B9: P1A6E monoclonal antibody (antibody, V domains shown)
VH: QVQLEQSGLGLVKPSQTLSLTCAISGDTVSSDSAAWNWIRQSPSRGLEWLGRTYYRSKWFNDYAVSVKGRITINSDTSKNQFSLQLNSVTPEDTAVYYCARSNSYYYYAMDVWGQGTLVTVSS
VL: QAVLTQPSSLSASPGASASLTCTLRSGINVGIYRIYWYQQRPGSPPQILLTYKSDSDKYQGSGVPSRFSGSKDASANAGILLISGLQSEDEADYYCMIWHSGGWVFGGGTKVTVLG
notes: Full antibody: VH in plasmid pIH with human IgG1 CH gene, VL in plasmid pIK with human IgG CL gene; also called monoclonal antibody P1A6E

How the values were obtained:
[1] = biological target: human mesothelin on PANC-1-MSLN cells (human, UniProt Q13421 296-598); test: cell-based or functional assay
[2] = biological target: B6; test: flow cytometry; CAR T cells stained with biotinylated human mesothelin recombinant protein and PE-labeled streptavidin
Procedure: Infected CTL cells were detected by flow cytometry on day 8 of culture for the expression of different chimeric antigen receptors. Firstly, the infected CAR T cells were incubated with biotinylated human mesothelin recombinant protein for 1 h at 37° C., washed in D-PBS twice and then incubated with PE-labeled streptavidin for 40 min at 37° C. After washed with D-PBS for 3 times, the ratio of positive cells was determined by flow cytometry. Uninfected T lymphocytes was used as a negative control, the positive rates of virus-infected T cells expressing different chimeric antigen receptors are shown in Table 3.

[3] = biological target: T1, BSA (bovine serum albumin) (bovine, UniProt P02769 25-607); test: single phage ELISA, 100 ng/well coated BSA, anti-M13 detection
T1 construct: also called negative control protein BSA
Procedure: 96 clones were randomly selected in the clones obtained from the fourth round of screening and their binding capability to human mesothelin was analyzed by single phage ELISA (enzyme-linked immunosorbent assay). For this purpose, each single colony was inoculated in 300 μl of 2×YT/ampicillin medium (containing 2% glucose) in a 96-well deep-well plate and cultured with shaking at 37° C. and 250 rpm for 16 hours. 20 μl of culture was inoculated into 500 μl of 2×YT/ampicillin medium (containing 0.1% glucose) and shaken at 37° C. and 250 rpm for 1.5 hours. To prepare the helper phage solution, 75 μl of M13KO7 (titer of 3×10¹² pfu/ml) was taken and mixed into 15 ml of 2×YT medium and added into a culture plate at 50 μl/well, and incubated at 37° C. and 150 rpm for 30 minutes. And then prepared kanamycin solution (180 μl of 50 mg/ml kanamycin was taken and added into 15 ml of 2×YT medium) was added at 50 μl/well and incubated with shaking for 16 hours at 37° C. and 250 rpm. […]
For single phage ELISA, 100 ng/well of antigen human mesothelin and negative control protein BSA (100 μl/well) were used in a 96-well MediSorp ELISA plate (purchased from Nunc) and coated overnight at 4° C. […] Extinction values were measured at 450 nm with an enzyme-linked immunosorbent (Bio-Rad).

[4] = biological target: B6; test: SPR Biacore T200, antibody captured by anti-human IgG (Fc), human mesothelin as analyte, 25 C
Procedure: (§1) To quantitatively analyze the binding of an antibody to human mesothelin, the affinity and kinetic parameters of single-chain antibody and monoclonal antibody of P1A6E and P3F2 were measured by capture method using Biacore T200 system (from GE). An anti-human IgG (Fc) antibody (purchased from GE) was coupled to carboxymethyl dextran surface of sensor chip […] through primary amino with NHS/EDC coupling according to the manufacturer's instructions. Measurements were performed in 1×HBS-EP+working buffer at 25° C., 30 μl/min, and regeneration condition was 3 M MgCl2, 10 μl/min for 30 seconds. In each round of the testing cycle, the antibody to be tested is firstly captured onto the chip. Analyte (human mesothelin) of a certain concentration flowed over the chip surface. Due to the produced SPR signal, the interaction between human mesothelin and the captured antibody can be detected. The detected signal is defined as resonance unit (RU), which was plotted vs time (second) to obtain the corresponding binding curve and dissociation curve. In different test cycles, concentrations of human mesothelin were 10 nM, 20 nM, 40 nM, 80 nM and 160 nM, respectively. The resulting curves were evaluated using Biacore T200 evaluation software and the affinity KD values were calculated. FIG. 5 and FIG. 6 show kinetic curves of the monoclonal antibodies P1A6E and P3F2, in a Biacore Affinity Assay, respectively.

scFv-P3F2-Fc = biological target: T2, scFv-P3F2-Fc (human, UniProt P01857-1 99-330 = IgG part, limits assumed); test: as above
T2 construct: domain: Fc fragment; scFv cloned NheI/BamHI into pCMV-V5-Fc, expressed in HEK-293F, protein A purified; also called P3F2 single chain antibody; P3F2 single chain antibod
Procedure: as §1

scFv-P1A6E-Fc = biological target: T3, scFv-P1A6E-Fc (human, UniProt P01857-1 99-330 = IgG part, limits assumed); test: as above
T3 construct: domain: Fc fragment; scFv cloned NheI/BamHI into pCMV-V5-Fc, expressed in HEK-293F, protein A purified; also called P1A6E single chain antibody; antibody-Fc fusion protein scFv-P1A6E-Fc
Procedure: as §1

human mesothelin on PANC-1-MSLN cells, sequence (Q13421 other isoform, or with tags, fused parts or gaps limits assumed): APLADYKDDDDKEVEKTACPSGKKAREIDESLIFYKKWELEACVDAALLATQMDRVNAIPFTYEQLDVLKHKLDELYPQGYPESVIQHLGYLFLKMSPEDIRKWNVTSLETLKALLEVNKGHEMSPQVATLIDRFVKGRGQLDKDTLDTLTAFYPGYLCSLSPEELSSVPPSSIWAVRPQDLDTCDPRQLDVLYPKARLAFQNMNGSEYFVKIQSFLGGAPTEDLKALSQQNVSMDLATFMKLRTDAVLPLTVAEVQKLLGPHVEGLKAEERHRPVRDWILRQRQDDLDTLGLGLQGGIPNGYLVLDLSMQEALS
T1 sequence (P02769 25-607 limits assumed): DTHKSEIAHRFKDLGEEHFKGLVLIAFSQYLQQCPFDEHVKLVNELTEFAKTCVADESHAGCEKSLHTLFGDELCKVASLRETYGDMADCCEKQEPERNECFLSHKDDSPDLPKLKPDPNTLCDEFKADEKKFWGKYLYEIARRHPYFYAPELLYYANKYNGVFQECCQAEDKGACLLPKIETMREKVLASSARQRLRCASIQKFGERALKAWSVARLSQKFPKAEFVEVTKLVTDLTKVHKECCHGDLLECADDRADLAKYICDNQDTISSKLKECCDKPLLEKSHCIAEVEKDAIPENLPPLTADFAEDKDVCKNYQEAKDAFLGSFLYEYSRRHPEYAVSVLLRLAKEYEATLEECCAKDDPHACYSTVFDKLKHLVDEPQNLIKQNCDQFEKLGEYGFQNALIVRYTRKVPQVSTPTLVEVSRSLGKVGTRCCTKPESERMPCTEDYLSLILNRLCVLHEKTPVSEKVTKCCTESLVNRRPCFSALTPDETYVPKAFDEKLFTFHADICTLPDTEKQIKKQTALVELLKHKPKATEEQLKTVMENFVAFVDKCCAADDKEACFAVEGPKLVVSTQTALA

B1
CYTOTOXICITY (%), effector target ratio 1:1, LDH release, 18 h [1]: 60.2%
CYTOTOXICITY (%), effector target ratio 1:3, LDH release, 18 h [1]: 31.9%
CYTOTOXICITY (%), effector target ratio 3:1, LDH release, 18 h [1]: 89.3%
Positive rate of CTL cells transfection [2]: 83%

B2
CYTOTOXICITY (%), effector target ratio 1:1, LDH release, 18 h [1]: 56.7%
CYTOTOXICITY (%), effector target ratio 1:3, LDH release, 18 h [1]: 25.3%
CYTOTOXICITY (%), effector target ratio 3:1, LDH release, 18 h [1]: 86.5%
Positive rate of CTL cells transfection [2]: 85%

B3
binding result [3]: no binding

B4
binding result [3]: no binding

B5
Kd [4]: 7.17 nM
koff [4]: 0.000789 s⁻¹
kon [4]: 110000 M⁻¹ s⁻¹

B6
Kd (scFv-P3F2-Fc): 16.2 nM
koff (scFv-P3F2-Fc): 0.000935 s⁻¹
kon (scFv-P3F2-Fc): 57700 M⁻¹ s⁻¹
Kd (scFv-P1A6E-Fc): 18.9 nM
koff (scFv-P1A6E-Fc): 0.00156 s⁻¹
kon (scFv-P1A6E-Fc): 82500 M⁻¹ s⁻¹

B7
Positive rate of CTL cells transfection [2]: 75%

B8
Positive rate of CTL cells transfection [2]: 71%

B9
Kd [4]: 4.04 nM
koff [4]: 0.00116 s⁻¹
kon [4]: 288000 M⁻¹ s⁻¹
